Test results taken from the supplement of paper PMC9170038.

System: K4 kissing-loop RNA reporter
Experiment: apparent KD of K4 kissing-loop reporter; higher = weaker reporter binding
Conditions: Eterna round: R107; input ligand: arginine 13.2 mM
Experimental: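 RNA-MaP round R107: designed RNA switches with theophylline, tryptophan, arginine or FMN aptamers are transcribed on-chip within common flanks. They are titrated with a labelled K4 kissing-loop RNA reporter in RNA-MaP buffer (100 mM Tris pH 7.5, 80 mM KCl, 4 mM MgCl2), without ligand or with the indicated ligand. Median apparent KD per design.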
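Also: bound reporter read as fluorescence of individual clusters on recovered sequencing chips by microscopy, with normalized cluster intensities fitted with a binding model.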

Row | Sequence | apparent KD of K4 kissing-loop reporter [nM]
1 | GGUGUUGUUUGUGCUGUUUUCCUCGUUCCUCGAGGACCGGUACGGCCGCCACUCGAGUGAUGUUUGGGUAGCGAUCCCUGUUAGU [Bdazzled - #8 Exc. Tryptophan A] | 504
2 | UGUGAGCUGUCGACAAAAGUCGACUAAAAUGAGGAUAUGACGAAAGUCAGAAGGCAUCAAUAAUGGAGUGAUGUUCCUGCUCACU [FmnA 9 U30+A56] | 432
3 | GGGAGUAGUGCGGCCGCCACUGAGAAAGAAGAAGAAUAUAGUGAUGUUAUAUAGGAAUAAAAGAACAGGACCGGGCAUUAGAUUU [SSTRyptB.T] | 239
4 | AUAUGCAGGAGAAGGAGCGUCGUUUCAAGUGAUGUUUGCAAGCGAGCUUACUAUAUAAGACGACAGGUAGGUCGCUCCUGCGUAA [#06 K4 Arginine B Exclusion] | 150
5 | GAUUGGCGGACGGCCGCCACUCGGACGAGUCACAGUGAUGUUGUGGUUUGCCAGUCGACUUCAUCGAGGACCGGGUUUGUCGGGC [Exclusion Tryptophan B GF 21] | 407
6 | AAUAUAGUGAUGUUAUAUAAGAAGGAGUUACGAGGACCGGUACGGCCGCCACUCGAAACGAGUGAGGGCCCGGGAGAUUGGGCCC [SSTryptA.G] | 275
7 | AACUGCUAAGAGGUUAAGCACGUCAUUAUGAAGGAUAUAGAAUUCACUAGAAGGUCAUGUGCCCUGAGUGAUGUUCAGAUAGGCG [theeternabot_sameState_KL_FMN_A_25] | 229
8 | AUACAUGUAAAUCUAUAUGUAUAAUGGAGCCGAGGACCGGUACGGCCGCCACUCGGAGUAAUCGGAGUGAUGUUCCGAAAUGUAC [KL-SSTryp-A sub13] | 119
9 | AUUAAUUUCAGAGGAUAUCGUAAUUUUAUUUUAUUUUUUCAUUUAUGCAGUGAUGUUGCAUUUAUUCGAGAAGGCUGAUUUAUAA [JR_SSFMNB_Sub021] | 74.4
10 | GGAGUUACCUGGGAUACCAGUCGGAGUCCCAGAGCUCGGAGUGAUGUUCUGGGAUGUUUCGGCCCUUGGCAGCUCUGGGACUCCC [#2 Exclusion - Theophylline B Attempt #9 (HarryS)] | 597
11 | GACUGGAGUGAUGUUCCAUUAACGAUCCUACGAGGACCGGUACGGCCGCCACUCGAAAUGCAGUGAUGUUGCAGCCAGCCGUACU [Exclusion Trptophan A GF 8] | 180
12 | CGAUGUUCCUGGGAUACCAGUCGGAGUCUCAGAGCUCGGAGUGAUGUUCUGGGAUGUUUCGGCCCUUGGCAGCUCUGGGACUCCC [#2 Exclusion - Theophylline B Attempt #23 (HarryS)] | 615
13 | AGUGAUGUGGGAAGGAGCGGUUAAUGAAUUCAGUGAUGUUGAAGUGAUGCUGAAAUGAUGUGCCAGGUAGGUCGCCUAGAUGUUA [KL-XARG B28] | 164
14 | GCCAUCUACUAAGGAUAUUAAGUCAAUAUUUGUGGUGCCAUCUGUCGUUCAGGGCAGUGAUGUUGCUAAGAAGGUAGUCUGUCGG [theeternabot_exclusion_KL_FMN_B_39] | 441
15 | CCUUCCCUUGAUAGUGAUGUUAUCAAGGACAAGGAUAUCAUCUCAAUGAGAAGGUGUCCUUGAUAACAUGGAGGUCUGAAACAGA [Omei KL FMN A Exc C v2] | 125
16 | GUCUGCGUCUCGGCCGCCACUCACUAGUGAUGUUAGUAAGGAGCGACUAGAGAAGUCCAGUUGAUGAGGACCGGGAGACGCAAAA [Exclusion Tryptophan B GF4] | 84.3

Row | Sequence | apparent KD of K4 kissing-loop reporter [nM]
17 | AGGAUGUAGUGAUGUUAUAUAAGAAGUAAACGAGGACCGGUACGGCCGCCACUCGAAGCGGCUACUAGCGCGCCGCGAGGCGCGC [ExTryptoA.Cb] | 391
18 | CGUGCCCAGCCGGAUACCAGUGACCCGCUGGGAACCGCGGGCCCAGAGUGAUGUUCGGGACACCCUUGGCAGCCGCCUGGGCGGC [#2 Same State - Theophylline B Attempt #12 (HarryS)] | 724
19 | AUUUAAUUAACUGAUACCAGACUUAAUGUUUUGUAUAUUACUAGUGAUGUUAGUGAUUCUGUCCCUUGGCAGCAGUAUCUACUUA [JR_ExcTheophyB_Sub014] | 152
20 | AACUGUCAAGGCCAACAUUACUGAGGUGAUACCAGCAUCGAAAGAUGCCCUUGGCAGCACCAACUUGCAGUGAUGUUGCAAGUAA [BrourdMod 13 - Jieux - Exclusion - Theophylline A] | 203
21 | CAUGCCAUGAUCCUCCUGGUAUCUCCUGAUACCAGCGUGCUGACACGCCCUUGGCAGCAGGAGUCGAGAGUGAUGUUGUCGAGAA [KL-SSTheo-A9 #analogue] | 174
22 | GCUAGGCAUGCAGGAUAUCGCCGAGUGAUGUUCGGUAGGCCGCUUUCUUUCUUUCUUUGCGGCCAGCGAGAAGGGCAUGCCUAGC | 112
23 | UAUUUAAUGUCAGGAUAUCGUAUACGAGUGAUGUUCGUAUUUCUACUAUAGAUUAUUUAAAUUUUUCGAGAAGGGACAAUAUUUA [KL-SSFMN-B4] | 208
24 | UGUAUGUGAUUUGAUACCAGACCAGCUGGUGGUAUAUGAGUGAUGUUCAUGUUGGUGUGGGUCCCUUGGCAGCAAAUCGCAUACU [KL-SSTheoB9] | 161
25 | AAAAUUGCGGUCGAAAGAACUUCUUGCAUACGAGGACCGGUACGGCCGCCACUCGAGUCAAGUGAUGUUUGAUUUUCUAUUAUUA [JR_ExcTryptoA_Sub013] | 170
26 | GGAUAGGAUAGAGGAUAUGGCUUAUGCAGAAAUAACUUAUUGUGUAAAUCCAUAGGGAGUGAUGUUCCAGAAGGCUGUCCUAUCG [MatMod 16 - Jieux - Exclusion - FMN B] | 218
27 | AGUGAUGUGGGAAGGAGCGGUAUAUGAAUUCAGUGAUGUUGAAGUGAUGCUGUAAUGAUGUGCCAGGUAGGUCGCCUAGAUGUUA [KL-XARG B26] | 161
28 | ACGCGCGCGAGUGAUGUUCGGAGCGGCUGGCAGGAUAUGUAGCAAUGCAGAAGGGUCGUGGCGCGUCCAGGGUAACCUGGACGCG [#2 Exclusion - FMN A Attempt #26 (HarryS)] | 229
29 | UGAUCUCAGUGAUGUUGAGAUCAAACUGAUACCAGUCAAUUUAGUGACCCUUGGCAGCAGUAUACCAAGGGAUCUUAUGAGAUCA [Theo A SS t5] | 152
30 | CGAGUCCUGAGGAGUGAUGUUCCUCGGCCACGAGGACCGGUACGGCCGCCACUCGUUACUCGAGCUUAGUAGCUAGCACUAAGCC [Zaussora] | 164
31 | AAAUAGCUGACGUUGAGUGGGAGCCAGGCACGAGGACCGGUACGGCCGCCACUCGACUAGGUUUUCAGUGAUGUUGAAAAUUUAA [Exclusion Tryptophan A GF 5] | 249
32 | AAGCAGUCACUCGAAUCCAUCGAAGAUGGGCGAGGACCGGUACGGCCGCCACUCGGAGUGAUGUUCCGCAGACUGCAAAAUAAAA | 402

Same assay, conditions: Eterna round: R107; input ligand: none

Row | Sequence | apparent KD of K4 kissing-loop reporter [nM]
33 | AAGUACACGAUAGUGUACACCUAGUGAUGUUAGGAUAUGCAGAUAUGCAGAAGGAGCAAGUCAUCUGACAAUAGUCGGAUGACAA [FmnAX 7 #OpenEnded #K4Early] | 89.4
34 | AGCAAUAUCACGGCCGCCACUGAAUAUUGUUUUUAUAGUUAUAAAUCUUGCCAGUGAUGUUGGUUCAGGACCGGGUGAGUUAAUA [JR_SSTryptoB_Sub003] | 625
35 | AGCCAUCACACGGCCGCCACUGAGUAGUGAUGUUGCUUGUAAAUCAGUCACCGCAUUAAUGCCGACAGGACCGGGUGCAUCGAGG [theeternabot_exclusion_KL_Trp_B_17] | 327
36 | GGAGAGCGAAAAGGAUAUGCGUCCGUCAAAAUUAUGUAGCGCGGAAAAUGGUAGUGAUGUUGCAAAGCAGAAGGUUUCAGAUGUA [theeternabot_sameState_KL_FMN_B_43] | 450
37 | AGUGAUGUGGGAAGGAGCGGUAUAUGAGUUCAGUGAUGUUGAAGUGAUGAUAUAGUGAUGUGCCAGGUAGGUCGCCUAGAUGUUA [KL-XARG-B5] | 210
38 | AGACUACUGACAGGAUAUAACAUAUUAGCUCGUAUACCAAAGGUAUACGAGCACCUUCUAGUGAUGUUAGAAGGGUCGGUAGUCA [Omei KL FMN B Exc B v1] | 106
39 | UGCACGGGCUCGGCCGCCACUCCCGCGGGUCGCAAGGUCCGCUACUGAGUGAUGUUCGGUUGGAGGAGGACCGGGAGCCCGUGCA [#2 Exclusion - Tryptophan B Attempt #27 (HarryS)] | 113
40 | UUUAAAUAUAGUGAUGUUAUAUAACAAUGACGAGGACCGGUACGGCCGCCACUCGAGAGAGAUAAUGGUCUUACAAAUGUAAGUU [AstrosSSTryA#9] | 793
41 | ACCAUCAAAGAUGGCCAGGACACCGCUGAUACCAGAGUGAAAACACUCCCUUGGCAGCAGGUGAGUGAUGUUCACAGUCCAUGGA [Omel KL Theo A SS B v2] | 588
42 | AAAAUAAAUAGCAGUCAUGGAGUGAUGUUCCGAGGACCGGUACGGCCGCCACUCGACCAUCAUAAGAUGGAAUGGCAAGACUGCA [#SwitchBubble 23 #K4Early] | 358
43 | GGUGUUGUUUGUGCUGUUUUCCUCGUUCCUCGAGGACCGGUACGGCCGCCACUCGAGUGAUGUUUGGGUAGCGAUCCCUGUUAGU [Bdazzled - #8 Exc. Tryptophan A] | 675
44 | UGUGAGCUGUCGACAAAAGUCGACUAAAAUGAGGAUAUGACGAAAGUCAGAAGGCAUCAAUAAUGGAGUGAUGUUCCUGCUCACU [FmnA 9 U30+A56] | 809
45 | GGGAGUAGUGCGGCCGCCACUGAGAAAGAAGAAGAAUAUAGUGAUGUUAUAUAGGAAUAAAAGAACAGGACCGGGCAUUAGAUUU [SSTRyptB.T] | 255
46 | AUAUGCAGGAGAAGGAGCGUCGUUUCAAGUGAUGUUUGCAAGCGAGCUUACUAUAUAAGACGACAGGUAGGUCGCUCCUGCGUAA [#06 K4 Arginine B Exclusion] | 155
47 | GAUUGGCGGACGGCCGCCACUCGGACGAGUCACAGUGAUGUUGUGGUUUGCCAGUCGACUUCAUCGAGGACCGGGUUUGUCGGGC [Exclusion Tryptophan B GF 21] | 497
48 | AAUAUAGUGAUGUUAUAUAAGAAGGAGUUACGAGGACCGGUACGGCCGCCACUCGAAACGAGUGAGGGCCCGGGAGAUUGGGCCC [SSTryptA.G] | 320
49 | AACUGCUAAGAGGUUAAGCACGUCAUUAUGAAGGAUAUAGAAUUCACUAGAAGGUCAUGUGCCCUGAGUGAUGUUCAGAUAGGCG [theeternabot_sameState_KL_FMN_A_25] | 236
50 | AUACAUGUAAAUCUAUAUGUAUAAUGGAGCCGAGGACCGGUACGGCCGCCACUCGGAGUAAUCGGAGUGAUGUUCCGAAAUGUAC [KL-SSTryp-A sub13] | 104
51 | AUUAAUUUCAGAGGAUAUCGUAAUUUUAUUUUAUUUUUUCAUUUAUGCAGUGAUGUUGCAUUUAUUCGAGAAGGCUGAUUUAUAA [JR_SSFMNB_Sub021] | 40.8
52 | GGAGUUACCUGGGAUACCAGUCGGAGUCCCAGAGCUCGGAGUGAUGUUCUGGGAUGUUUCGGCCCUUGGCAGCUCUGGGACUCCC [#2 Exclusion - Theophylline B Attempt #9 (HarryS)] | 776
53 | GACUGGAGUGAUGUUCCAUUAACGAUCCUACGAGGACCGGUACGGCCGCCACUCGAAAUGCAGUGAUGUUGCAGCCAGCCGUACU [Exclusion Trptophan A GF 8] | 162
